Common to all, as to format: biochemical
Data set [1] is described as follows: Luminescence activity assay of purified Gaussia luciferase mutants on fluoro-coelenterazine. Set-up: key to Activity of mutant relative to wild-type Gaussia luciferase without the signal peptide: ratio of mutant luminescence intensity to wild-type Gaussia luciferase. The following applies: for Activity of mutant relative to wild-type Gaussia luciferase without the signal peptide: Substrate f-CTZ (Table 16); for measured value, f-CTZ: purified combinatorial mutant, substrate fluoro-coelenterazine (f-CTZ). The essentials:
(§1)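 Readout: luminescence intensity, as ratio to signal-peptide-free wild-type enzyme. Enzyme 1 μg/mL, substrate 100 μM stock, 10 μL + 90 μL; buffer 50 mM Tris-HCl pH 8.0, 100 mM NaCl, 0.1% Tween-20.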

The nature of data set [2]: Luminescence activity assay of purified Gaussia luciferase mutants on coelenterazine. Set-up: key to Activity of mutant relative to wild-type Gaussia luciferase without the signal peptide: ratio of mutant luminescence intensity to wild-type Gaussia luciferase. The following applies: for Activity of mutant relative to wild-type Gaussia luciferase without the signal peptide: Substrate CTZ (Table 16); for measured value, CTZ: purified combinatorial mutant, substrate coelenterazine (CTZ). In outline: as §1

Data set [3] can be described thus: Luminescence activity assay of purified Gaussia luciferase mutants on coelenterazine derivative ZS2. As to conditions: for Activity of mutant relative to wild-type Gaussia luciferase without the signal peptide: Substrate ZS2 (Table 16); for measured value, ZS-2: purified combinatorial mutant, substrate coelenterazine derivative ZS2; for ratios of catalytic activities on ZS2 relative to ZS26: substrate specificity, FIG. 10, in words. Set-up: key to Activity of mutant relative to wild-type Gaussia luciferase without the signal peptide: ratio of mutant luminescence intensity to wild-type Gaussia luciferase. The essentials:
as §1

Data set [4] is described as follows: Substrate specificity test of combinatorial mutants: activity on coelenterazine derivative ZS26. As to conditions: for measured value, ZS-26: purified combinatorial mutant, substrate coelenterazine derivative ZS26; for ratio of catalytic activities, ZS2/ZS26 / ratio of catalytic activities, CTZ/ZS26 / ratio of catalytic activities, f-CTZ/ZS26: substrate specificity; for ratio of catalytic activities, ZS2/ZS26: ZS2 relative to ZS26; for ratio of catalytic activities, CTZ/ZS26: coelenterazine relative to ZS26; for ratio of catalytic activities, f-CTZ/ZS26: fluoro-coelenterazine relative to ZS26. Here is the method:
In this Example, the protein concentration was determined with a BCA quantitative kit (Thermo Scientific™ Pierce™ BCA Protein Assay Kit) accurately. The purified luciferase obtained in Example 5 was diluted with diluent (50 mM Tris-HCl, pH 8.0, 100 mM NaCl, 0.1% (v/v) Tween-20) to 1 μg/mL. The diluted luciferase, taken for 10 μL, was moved into a black 96-well plate, then added with 90 μL of the substrates coelenterazine, fluoro-coelenterazine or coelenterazine derivative ZS2 (purchased from Biolab) which was diluted into 100 μM with the same diluent, and the luminescence intensity of the plate was read with a self-luminescence module of a microplate reader. The mutation site of the mutant, the measured luminescence intensity, the ratio of luminescence intensities of the advantageous mutants to the wild-type Gaussia luciferase without the signal peptide having the sequence shown in SEQ ID NO: 3 are shown in Table 15. The results of catalytic activity assay of the advantageous mutants relative to the wild-type Gaussia luciferase without the signal peptide having the sequence shown in SEQ ID NO: 3 on substrate coelenterazine are shown in FIG. 6. […] The results of catalytic activity assay of the advantageous mutants relative to the wild-type Gaussia luciferase without the signal peptide having the sequence shown in SEQ ID NO: 3 on substrate fluoro-coelenterazine are shown in FIG. 7.
The new mutant library constructed in Example 7 was screened and tested for substrate specificity. Expression and purification schemes were the same as that in Example 5, and the activity assay scheme was the same as that in Example 6. The respective catalytic activities of combinatorial mutants on coelenterazine, fluoro-coelenterazine or coelenterazine derivative ZS2, and coelenterazine derivative ZS26 (purchased from BIOLAB) were assayed, and comparisons among the substrate specificities of the combinatorial mutants were based on the ratios of catalytic activities on two corresponding substrates.

B1: F26G N27D V29L A30V V31I A32G S33D A36W T37S: Gaussia luciferase mutant (protein)
chain: MGVKVLFALICIAVAEAKPTENNEDGDILVIGDNFWSTDLDADRGKLPGKKLPLEVLKEMEANARKAGCTRGCLICLSHIKCTPKMKKFIPGRCHTYEGDKESAQGGIGEAIVDIPEIPGFKDLEPMEQFIAQVDLCVDCTTGCLKGLANVQCSDLLKKWLPQRCATFASKIQGQVDKIKGAGGD
modifications: SIGNAL (1)..(17)
notes: Gaussia luciferase mutant
On to B1, for which the figures for the “Activity of mutant relative to wild-type Gaussia luciferase without the signal peptide” value in data set [1], in data set [2] and in data set [3] were 0.040, 0.038 and 0.027, respectively.

B2: F26L V29A V31I A32D S33R A36N T37E LA0P: Gaussia luciferase mutant (protein)
chain: MGVKVLFALICIAVAEAKPTENNEDLNIAAIDRNFNETDLDADRGKLPGKKLPLEVLKEMEANARKAGCTRGCLICLSHIKCTPKMKKFIPGRCHTYEGDKESAQGGIGEAIVDIPEIPGFKDLEPMEQFIAQVDLCVDCTTGCLKGLANVQCSDLLKKWLPQRCATFASKIQGQVDKIKGAGGD
On to B2, for which the “Activity of mutant relative to wild-type Gaussia luciferase without the signal peptide” value in data set [1] turned out to be 0.402; in data set [2] it was 0.406; in data set [3], 0.385.

B3: F26G N27Y A30G V31L A32G S33L A36Y T37V L40E: Gaussia luciferase mutant (protein)
chain: MGVKVLFALICIAVAEAKPTENNEDGYIVGLGLNFYVTDEDADRGKLPGKKLPLEVLKEMEANARKAGCTRGCLICLSHIKCTPKMKKFIPGRCHTYEGDKESAQGGIGEAIVDIPEIPGFKDLEPMEQFIAQVDLCVDCTTGCLKGLANVQCSDLLKKWLPQRCATFASKIQGQVDKIKGAGGD
modifications: SIGNAL (1)..(17)
notes: Gaussia luciferase mutant
Regarding B3, the “Activity of mutant relative to wild-type Gaussia luciferase without the signal peptide” value is listed as 0.025 in data set [1], 0.031 in data set [2] and 0.027 in data set [3].

B4: F26N V29S A30D S33D A36T T37A L40G: Gaussia luciferase mutant (protein)
chain: MGVKVLFALICIAVAEAKPTENNEDNNISDVADNFTATDGDADRGKLPGKKLPLEVLKEMEANARKAGCTRGCLICLSHIKCTPKMKKFIPGRCHTYEGDKESAQGGIGEAIVDIPEIPGFKDLEPMEQFIAQVDLCVDCTTGCLKGLANVQCSDLLKKWLPQRCATFASKIQGQVDKIKGAGGD
modifications: SIGNAL (1)..(17)
notes: Gaussia luciferase mutant
For B4, the “Activity of mutant relative to wild-type Gaussia luciferase without the signal peptide” value in data set [1] was 0.121; in data set [2], 0.098; in data set [3], 0.106.

B5: F26I V29A A30D A32V S33K T37E L40A: Gaussia luciferase mutant (protein)
chain: MGVKVLFALICIAVAEAKPTENNEDINIADVVKNFAETDADADRGKLPGKKLPLEVLKEMEANARKAGCTRGCLICLSHIKCTPKMKKFIPGRCHTYEGDKESAQGGIGEAIVDIPEIPGFKDLEPMEQFIAQVDLCVDCTTGCLKGLANVQCSDLLKKWLPQRCATFASKIQGQVDKIKGAGGD
modifications: SIGNAL (1)..(17)
notes: Gaussia luciferase mutant
B5: the “Activity of mutant relative to wild-type Gaussia luciferase without the signal peptide” value in data set [1] turned out to be 0.583; in data set [2], 1.470; in data set [3], 1.231.

B6: F26G N27Y V29C A30V V31L S33G A36R T37A L40A: Gaussia luciferase mutant (protein)
chain: MGVKVLFALICIAVAEAKPTENNEDGYICVLAGNFRATDADADRGKLPGKKLPLEVLKEMEANARKAGCTRGCLICLSHIKCTPKMKKFIPGRCHTYEGDKESAQGGIGEAIVDIPEIPGFKDLEPMEQFIAQVDLCVDCTTGCLKGLANVQCSDLLKKWLPQRCATFASKIQGQVDKIKGAGGD
modifications: SIGNAL (1)..(17)
notes: Gaussia luciferase mutant
On to B6, for which the “Activity of mutant relative to wild-type Gaussia luciferase without the signal peptide” value in data set [1] amounted to 0.104; in data set [2], 0.088; in data set [3] it was 0.080.

B7: F26L N27H V29C V31I S33V A36Q T37S L40G: Gaussia luciferase mutant (protein)
chain: MGVKVLFALICIAVAEAKPTENNEDLHICAIAVNFQSTDGDADRGKLPGKKLPLEVLKEMEANARKAGCTRGCLICLSHIKCTPKMKKFIPGRCHTYEGDKESAQGGIGEAIVDIPEIPGFKDLEPMEQFIAQVDLCVDCTTGCLKGLANVQCSDLLKKWLPQRCATFASKIQGQVDKIKGAGGD
modifications: SIGNAL (1)..(17)
notes: Gaussia luciferase mutant
As for B7, the figures for the “Activity of mutant relative to wild-type Gaussia luciferase without the signal peptide” value in data set [1], in data set [2] and in data set [3] were 0.095, 0.066 and 0.067, respectively.

B8: F26I N27D V29A A30D V31I S33K A36N T37K L40P: Gaussia luciferase mutant (protein)
chain: MGVKVLFALICIAVAEAKPTENNEDIDIADIAKNFNKTDPDADRGKLPGKKLPLEVLKEMEANARKAGCTRGCLICLSHIKCTPKMKKFIPGRCHTYEGDKESAQGGIGEAIVDIPEIPGFKDLEPMEQFIAQVDLCVDCTTGCLKGLANVQCSDLLKKWLPQRCATFASKIQGQVDKIKGAGGD
modifications: SIGNAL (1)..(17)
notes: Gaussia luciferase mutant
As to B8, the “Activity of mutant relative to wild-type Gaussia luciferase without the signal peptide” value in data set [1] stood at 0.080; in data set [2], 0.016; in data set [3], 0.026.

B9: mutant E1-G12: Gaussia luciferase combinatorial mutant encoded by SEQ ID NO: 42 (protein)
chain: MKPTENNEDLNILDIAKNFIETDLDADRGKLPGKKLPLEVLKEMEANARIAGCTRGCLICLSKIKCTLKMKKFIPGRCHTYEGDKSTGQGGIGPAIVDIPEIPGFKDMEPMEQFIAQVDLCEDCTTGCLKGLANVQCSDLLKKWLPQRCATFASKIQGQVDKIKGAGGD
For B9, in data set [1], the “measured value, f-CTZ” value is 94900. Besides, the “measured value, CTZ” value in data set [2] was 689624. Moreover, in data set [3], the “measured value, ZS-2” value was 401271 and the “ratios of catalytic activities on ZS2 relative to ZS26” value is given as “significantly improved”. In data set [4], the “measured value, ZS-26” value turned out to be 31521; the “ratio of catalytic activities, ZS2/ZS26” value was 12.73; the “ratio of catalytic activities, CTZ/ZS26” value is 21.87; the “ratio of catalytic activities, f-CTZ/ZS26” value is recorded as 3.01.

B10: mutant 4-C12: Gaussia luciferase combinatorial mutant encoded by SEQ ID NO: 43 (protein)
chain: MKPTENNEDFNIVAVASNFATTDLDADRGKLPGKKLPLEVLKEMEANARKAGCTRGCLICLSKIKCTPKMKKFIPGRCHTYEGDKSTGQGGIGPAIVDIPEIPGFKDMEPMEQFIAQVDLCEDCTTGCLKGLANVQCSDLLKKWLPQRCATFASKIQGQVDKIKGAGGD
With B10, in data set [1], the “measured value, f-CTZ” value is 167522. The “measured value, CTZ” value in data set [2] is given as 1675889. In addition, in data set [3], the “measured value, ZS-2” value worked out at 773694 and the “ratios of catalytic activities on ZS2 relative to ZS26” value is given as “significantly improved”. Besides, in data set [4], the “measured value, ZS-26” value came to 64057; the “ratio of catalytic activities, ZS2/ZS26” value is recorded as 12.08; the “ratio of catalytic activities, CTZ/ZS26” value stood at 26.16; the “ratio of catalytic activities, f-CTZ/ZS26” value is listed as 2.62.
